# In patent publication US20200199241A1 (Chugai, published 2020):
# Biological target: T1, human FcRn (soluble human FcRn complexed with β2-microglobulin) (human, UniProt P61769 21-119, limits assumed)
# T1 construct: also called hFcRn
# Assay: SPR, pH 7.0;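 further: antibodies captured on a Protein L sensor chip with human FcRn injected as analyte, KD calculated from fitted association and dissociation rate constants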
row,Binder,Kd
1,"IgG1-F673 (antibody, EU numbering; copies: 2 + 2) heavy: QVQLQESGPGLVKPSETLSLTCAVSGHSISHDHAWSWVRQPPGEGLEWIGFISYSGITNYNPSLQGRVTISRDNSKNTLYLQMNSLRAEDTAVYYCARSLARTTAMDYWGEGTLVTVSSASTKGPSVFPLAPSSKSTSGGTAALGCLVKDYFPEPVTVSWNSGALTSGVHTFPAVLQSSGLYSLSSVVTVPSSSLGTQTYICNVNHKPSNTKVDKKVEPKSCDKTHTCPPCPAPELLGGPSVFLFPPKPKDTLYISRTPEVTCVVVDVSHEDPEVKFNWYVDGVEVHPAKTKPREEQYNSTYRVVSVLTPLHQDWLNGKEYKCKVSNKALPAPIEKTISKAKGQPREPQVYTLPPSRDELTKNQVSLTCLVKGFYPSDIAVEWESNGQPENNYKTTPPVLDSDGSFFLYSKLTVDKSRWQQGNVFSCSVMHEALHYHYTQKSLSLSP light: not shown",23 nM
2,"IgG1-F678 (antibody, EU numbering; copies: 2 + 2) heavy: QVQLQESGPGLVKPSETLSLTCAVSGHSISHDHAWSWVRQPPGEGLEWIGFISYSGITNYNPSLQGRVTISRDNSKNTLYLQMNSLRAEDTAVYYCARSLARTTAMDYWGEGTLVTVSSASTKGPSVFPLAPSSKSTSGGTAALGCLVKDYFPEPVTVSWNSGALTSGVHTFPAVLQSSGLYSLSSVVTVPSSSLGTQTYICNVNHKPSNTKVDKKVEPKSCDKTHTCPPCPAPELLGGPSVFLFPPKPKDTLYISRTPEVTCVVVDVSHEDPEVKFNWYVDGVEVHVAKTKPREEQYNSTYRVVSVLTPLHQDWLNGKEYKCKVSNKALPAPIEKTISKAKGQPREPQVYTLPPSRDELTKNQVSLTCLVKGFYPSDIAVEWESNGQPENNYKTTPPVLDSDGSFFLYSKLTVDKSRWQQGNVFSCSVMHEALHYHYTQKSLSLSP light: not shown",33 nM
3,"IgG1-F677 (antibody, EU numbering; copies: 2 + 2) heavy: QVQLQESGPGLVKPSETLSLTCAVSGHSISHDHAWSWVRQPPGEGLEWIGFISYSGITNYNPSLQGRVTISRDNSKNTLYLQMNSLRAEDTAVYYCARSLARTTAMDYWGEGTLVTVSSASTKGPSVFPLAPSSKSTSGGTAALGCLVKDYFPEPVTVSWNSGALTSGVHTFPAVLQSSGLYSLSSVVTVPSSSLGTQTYICNVNHKPSNTKVDKKVEPKSCDKTHTCPPCPAPELLGGPSVFLFPPKPKDTLYISRTPEVTCVVVDVSHEDPEVKFNWYVDGVEVHTAKTKPREEQYNSTYRVVSVLTPLHQDWLNGKEYKCKVSNKALPAPIEKTISKAKGQPREPQVYTLPPSRDELTKNQVSLTCLVKGFYPSDIAVEWESNGQPENNYKTTPPVLDSDGSFFLYSKLTVDKSRWQQGNVFSCSVMHEALHYHYTQKSLSLSP light: not shown",47 nM
4,"IgG1-F668 (antibody, EU numbering; copies: 2 + 2) heavy: QVQLQESGPGLVKPSETLSLTCAVSGHSISHDHAWSWVRQPPGEGLEWIGFISYSGITNYNPSLQGRVTISRDNSKNTLYLQMNSLRAEDTAVYYCARSLARTTAMDYWGEGTLVTVSSASTKGPSVFPLAPSSKSTSGGTAALGCLVKDYFPEPVTVSWNSGALTSGVHTFPAVLQSSGLYSLSSVVTVPSSSLGTQTYICNVNHKPSNTKVDKKVEPKSCDKTHTCPPCPAPELLGGPSVFLFPPKPKDTLYISRTPEVTCVVVDVSHEDPEVKFNWYVDGVEVHHAKTKPREEQYNSTYRVVSVLTPLHQDWLNGKEYKCKVSNKALPAPIEKTISKAKGQPREPQVYTLPPSRDELTKNQVSLTCLVKGFYPSDIAVEWESNGQPENNYKTTPPVLDSDGSFFLYSKLTVDKSRWQQGNVFSCSVMHEALHYHYTQKSLSLSP light: not shown",40 nM
5,"IgG1-F669 (antibody, EU numbering; copies: 2 + 2) heavy: QVQLQESGPGLVKPSETLSLTCAVSGHSISHDHAWSWVRQPPGEGLEWIGFISYSGITNYNPSLQGRVTISRDNSKNTLYLQMNSLRAEDTAVYYCARSLARTTAMDYWGEGTLVTVSSASTKGPSVFPLAPSSKSTSGGTAALGCLVKDYFPEPVTVSWNSGALTSGVHTFPAVLQSSGLYSLSSVVTVPSSSLGTQTYICNVNHKPSNTKVDKKVEPKSCDKTHTCPPCPAPELLGGPSVFLFPPKPKDTLYISRTPEVTCVVVDVSHEDPEVKFNWYVDGVEVHIAKTKPREEQYNSTYRVVSVLTPLHQDWLNGKEYKCKVSNKALPAPIEKTISKAKGQPREPQVYTLPPSRDELTKNQVSLTCLVKGFYPSDIAVEWESNGQPENNYKTTPPVLDSDGSFFLYSKLTVDKSRWQQGNVFSCSVMHEALHYHYTQKSLSLSP light: not shown",35 nM
6,"IgG1-F667 (antibody, EU numbering; copies: 2 + 2) heavy: QVQLQESGPGLVKPSETLSLTCAVSGHSISHDHAWSWVRQPPGEGLEWIGFISYSGITNYNPSLQGRVTISRDNSKNTLYLQMNSLRAEDTAVYYCARSLARTTAMDYWGEGTLVTVSSASTKGPSVFPLAPSSKSTSGGTAALGCLVKDYFPEPVTVSWNSGALTSGVHTFPAVLQSSGLYSLSSVVTVPSSSLGTQTYICNVNHKPSNTKVDKKVEPKSCDKTHTCPPCPAPELLGGPSVFLFPPKPKDTLYISRTPEVTCVVVDVSHEDPEVKFNWYVDGVEVHGAKTKPREEQYNSTYRVVSVLTPLHQDWLNGKEYKCKVSNKALPAPIEKTISKAKGQPREPQVYTLPPSRDELTKNQVSLTCLVKGFYPSDIAVEWESNGQPENNYKTTPPVLDSDGSFFLYSKLTVDKSRWQQGNVFSCSVMHEALHYHYTQKSLSLSP light: not shown",30 nM
7,"IgG1-F670 (antibody, EU numbering; copies: 2 + 2) heavy: QVQLQESGPGLVKPSETLSLTCAVSGHSISHDHAWSWVRQPPGEGLEWIGFISYSGITNYNPSLQGRVTISRDNSKNTLYLQMNSLRAEDTAVYYCARSLARTTAMDYWGEGTLVTVSSASTKGPSVFPLAPSSKSTSGGTAALGCLVKDYFPEPVTVSWNSGALTSGVHTFPAVLQSSGLYSLSSVVTVPSSSLGTQTYICNVNHKPSNTKVDKKVEPKSCDKTHTCPPCPAPELLGGPSVFLFPPKPKDTLYISRTPEVTCVVVDVSHEDPEVKFNWYVDGVEVHKAKTKPREEQYNSTYRVVSVLTPLHQDWLNGKEYKCKVSNKALPAPIEKTISKAKGQPREPQVYTLPPSRDELTKNQVSLTCLVKGFYPSDIAVEWESNGQPENNYKTTPPVLDSDGSFFLYSKLTVDKSRWQQGNVFSCSVMHEALHYHYTQKSLSLSP light: not shown",210 nM

# More lines, now with the values ahead:
row,Kd,Binder
1,21 nM,"IgG1-F666 (antibody, EU numbering; copies: 2 + 2) heavy: QVQLQESGPGLVKPSETLSLTCAVSGHSISHDHAWSWVRQPPGEGLEWIGFISYSGITNYNPSLQGRVTISRDNSKNTLYLQMNSLRAEDTAVYYCARSLARTTAMDYWGEGTLVTVSSASTKGPSVFPLAPSSKSTSGGTAALGCLVKDYFPEPVTVSWNSGALTSGVHTFPAVLQSSGLYSLSSVVTVPSSSLGTQTYICNVNHKPSNTKVDKKVEPKSCDKTHTCPPCPAPELLGGPSVFLFPPKPKDTLYISRTPEVTCVVVDVSHEDPEVKFNWYVDGVEVHFAKTKPREEQYNSTYRVVSVLTPLHQDWLNGKEYKCKVSNKALPAPIEKTISKAKGQPREPQVYTLPPSRDELTKNQVSLTCLVKGFYPSDIAVEWESNGQPENNYKTTPPVLDSDGSFFLYSKLTVDKSRWQQGNVFSCSVMHEALHYHYTQKSLSLSP light: not shown"
2,32 nM,"IgG1-F674 (antibody, EU numbering; copies: 2 + 2) heavy: QVQLQESGPGLVKPSETLSLTCAVSGHSISHDHAWSWVRQPPGEGLEWIGFISYSGITNYNPSLQGRVTISRDNSKNTLYLQMNSLRAEDTAVYYCARSLARTTAMDYWGEGTLVTVSSASTKGPSVFPLAPSSKSTSGGTAALGCLVKDYFPEPVTVSWNSGALTSGVHTFPAVLQSSGLYSLSSVVTVPSSSLGTQTYICNVNHKPSNTKVDKKVEPKSCDKTHTCPPCPAPELLGGPSVFLFPPKPKDTLYISRTPEVTCVVVDVSHEDPEVKFNWYVDGVEVHQAKTKPREEQYNSTYRVVSVLTPLHQDWLNGKEYKCKVSNKALPAPIEKTISKAKGQPREPQVYTLPPSRDELTKNQVSLTCLVKGFYPSDIAVEWESNGQPENNYKTTPPVLDSDGSFFLYSKLTVDKSRWQQGNVFSCSVMHEALHYHYTQKSLSLSP light: not shown"
3,22 nM,"IgG1-F671 (antibody, EU numbering; copies: 2 + 2) heavy: QVQLQESGPGLVKPSETLSLTCAVSGHSISHDHAWSWVRQPPGEGLEWIGFISYSGITNYNPSLQGRVTISRDNSKNTLYLQMNSLRAEDTAVYYCARSLARTTAMDYWGEGTLVTVSSASTKGPSVFPLAPSSKSTSGGTAALGCLVKDYFPEPVTVSWNSGALTSGVHTFPAVLQSSGLYSLSSVVTVPSSSLGTQTYICNVNHKPSNTKVDKKVEPKSCDKTHTCPPCPAPELLGGPSVFLFPPKPKDTLYISRTPEVTCVVVDVSHEDPEVKFNWYVDGVEVHLAKTKPREEQYNSTYRVVSVLTPLHQDWLNGKEYKCKVSNKALPAPIEKTISKAKGQPREPQVYTLPPSRDELTKNQVSLTCLVKGFYPSDIAVEWESNGQPENNYKTTPPVLDSDGSFFLYSKLTVDKSRWQQGNVFSCSVMHEALHYHYTQKSLSLSP light: not shown"
4,24 nM,"IgG1-F672 (antibody, EU numbering; copies: 2 + 2) heavy: QVQLQESGPGLVKPSETLSLTCAVSGHSISHDHAWSWVRQPPGEGLEWIGFISYSGITNYNPSLQGRVTISRDNSKNTLYLQMNSLRAEDTAVYYCARSLARTTAMDYWGEGTLVTVSSASTKGPSVFPLAPSSKSTSGGTAALGCLVKDYFPEPVTVSWNSGALTSGVHTFPAVLQSSGLYSLSSVVTVPSSSLGTQTYICNVNHKPSNTKVDKKVEPKSCDKTHTCPPCPAPELLGGPSVFLFPPKPKDTLYISRTPEVTCVVVDVSHEDPEVKFNWYVDGVEVHMAKTKPREEQYNSTYRVVSVLTPLHQDWLNGKEYKCKVSNKALPAPIEKTISKAKGQPREPQVYTLPPSRDELTKNQVSLTCLVKGFYPSDIAVEWESNGQPENNYKTTPPVLDSDGSFFLYSKLTVDKSRWQQGNVFSCSVMHEALHYHYTQKSLSLSP light: not shown"
5,51 nM,"IgG1-F675 (antibody, EU numbering; copies: 2 + 2) heavy: QVQLQESGPGLVKPSETLSLTCAVSGHSISHDHAWSWVRQPPGEGLEWIGFISYSGITNYNPSLQGRVTISRDNSKNTLYLQMNSLRAEDTAVYYCARSLARTTAMDYWGEGTLVTVSSASTKGPSVFPLAPSSKSTSGGTAALGCLVKDYFPEPVTVSWNSGALTSGVHTFPAVLQSSGLYSLSSVVTVPSSSLGTQTYICNVNHKPSNTKVDKKVEPKSCDKTHTCPPCPAPELLGGPSVFLFPPKPKDTLYISRTPEVTCVVVDVSHEDPEVKFNWYVDGVEVHRAKTKPREEQYNSTYRVVSVLTPLHQDWLNGKEYKCKVSNKALPAPIEKTISKAKGQPREPQVYTLPPSRDELTKNQVSLTCLVKGFYPSDIAVEWESNGQPENNYKTTPPVLDSDGSFFLYSKLTVDKSRWQQGNVFSCSVMHEALHYHYTQKSLSLSP light: not shown"
6,32 nM,"IgG1-F676 (antibody, EU numbering; copies: 2 + 2) heavy: QVQLQESGPGLVKPSETLSLTCAVSGHSISHDHAWSWVRQPPGEGLEWIGFISYSGITNYNPSLQGRVTISRDNSKNTLYLQMNSLRAEDTAVYYCARSLARTTAMDYWGEGTLVTVSSASTKGPSVFPLAPSSKSTSGGTAALGCLVKDYFPEPVTVSWNSGALTSGVHTFPAVLQSSGLYSLSSVVTVPSSSLGTQTYICNVNHKPSNTKVDKKVEPKSCDKTHTCPPCPAPELLGGPSVFLFPPKPKDTLYISRTPEVTCVVVDVSHEDPEVKFNWYVDGVEVHSAKTKPREEQYNSTYRVVSVLTPLHQDWLNGKEYKCKVSNKALPAPIEKTISKAKGQPREPQVYTLPPSRDELTKNQVSLTCLVKGFYPSDIAVEWESNGQPENNYKTTPPVLDSDGSFFLYSKLTVDKSRWQQGNVFSCSVMHEALHYHYTQKSLSLSP light: not shown"
